What was measured:
[1] = biological target: CBP-Upf1-CH-His (S. cerevisiae); assay: SDS-PAGE band identified by Western blotting and mass spectrometry
[2] = biological target: FITC-labeled Dcp2-UBM1 peptide (aa 456-479) (S. cerevisiae) (UniProt P53550); assay: fluorescence polarisation
[3] = biological target: FITC-labeled Dcp2-UBM2 peptide (aa 694-718) (S. cerevisiae) (UniProt P53550); assay: fluorescence polarisation
[4] = biological target: T1, CBP-Upf1-CH-HD I693R (S. cerevisiae, UniProt P30771 54-851, I693R); assay: pull-down
T1 sequence: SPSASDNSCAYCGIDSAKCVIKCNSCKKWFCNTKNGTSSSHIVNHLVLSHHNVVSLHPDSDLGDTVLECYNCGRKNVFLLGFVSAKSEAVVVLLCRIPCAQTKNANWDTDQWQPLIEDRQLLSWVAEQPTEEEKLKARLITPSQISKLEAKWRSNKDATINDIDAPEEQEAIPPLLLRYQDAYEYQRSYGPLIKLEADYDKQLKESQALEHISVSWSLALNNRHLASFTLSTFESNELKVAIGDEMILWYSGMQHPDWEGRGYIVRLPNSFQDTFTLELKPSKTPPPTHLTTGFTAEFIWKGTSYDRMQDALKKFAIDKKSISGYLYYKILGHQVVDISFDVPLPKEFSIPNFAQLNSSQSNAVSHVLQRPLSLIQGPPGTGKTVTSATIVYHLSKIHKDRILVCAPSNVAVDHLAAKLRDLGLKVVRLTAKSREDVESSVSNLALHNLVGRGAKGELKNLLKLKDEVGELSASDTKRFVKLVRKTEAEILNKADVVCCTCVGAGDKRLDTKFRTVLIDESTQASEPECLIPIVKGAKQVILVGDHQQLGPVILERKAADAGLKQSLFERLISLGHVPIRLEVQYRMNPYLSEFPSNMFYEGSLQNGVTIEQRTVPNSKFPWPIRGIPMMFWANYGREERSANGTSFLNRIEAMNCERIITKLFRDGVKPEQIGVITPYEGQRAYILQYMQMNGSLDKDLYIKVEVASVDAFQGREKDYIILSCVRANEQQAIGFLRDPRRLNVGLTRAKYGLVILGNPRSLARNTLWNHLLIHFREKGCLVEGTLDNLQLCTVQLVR

[5] = biological target: CBP-Upf1-CH-His (S. cerevisiae); assay: fluorescence polarisation
[6] = biological target: T2, GST-Ebs1 (aa 1-591) (S. cerevisiae, UniProt Q03466 1-591); assay: pull-down
T2 sequence: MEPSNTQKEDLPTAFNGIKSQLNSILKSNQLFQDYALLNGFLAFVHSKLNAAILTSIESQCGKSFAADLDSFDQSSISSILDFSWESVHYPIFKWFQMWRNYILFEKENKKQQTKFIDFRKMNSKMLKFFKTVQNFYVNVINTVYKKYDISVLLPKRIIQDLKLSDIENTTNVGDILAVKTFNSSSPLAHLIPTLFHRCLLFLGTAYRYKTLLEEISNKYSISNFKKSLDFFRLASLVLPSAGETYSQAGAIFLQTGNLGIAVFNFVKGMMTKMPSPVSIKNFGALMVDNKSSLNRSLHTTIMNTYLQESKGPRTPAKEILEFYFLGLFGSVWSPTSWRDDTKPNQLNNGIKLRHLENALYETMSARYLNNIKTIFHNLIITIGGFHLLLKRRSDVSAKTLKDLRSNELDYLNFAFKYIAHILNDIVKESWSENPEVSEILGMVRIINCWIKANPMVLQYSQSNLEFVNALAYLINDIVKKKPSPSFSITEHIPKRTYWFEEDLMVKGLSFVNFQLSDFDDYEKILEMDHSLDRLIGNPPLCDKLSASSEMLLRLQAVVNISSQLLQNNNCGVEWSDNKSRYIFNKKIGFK

Chain of FITC-labeled Dcp2-UBM2 peptide (aa 694-718) (S. cerevisiae) (P53550 694-718): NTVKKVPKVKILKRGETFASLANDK
Chain of FITC-labeled Dcp2-UBM1 peptide (aa 456-479) (S. cerevisiae) (P53550 456-479): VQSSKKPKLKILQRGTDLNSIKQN

**Q.** With CBP-Upf1-CH-His (domain or fragment) as the molecule, how does the stoichiometry N [1] read?
**A.** 2

**Q.** And the Kd [2]?
**A.** 60.1 µM

**Q.** And the Kd [3]?
**A.** 25.1 µM

B1: Upf2 (933-1089)-His (domain or fragment)
chain: SDSDLEYGGDLDADRDIEMKRMYEEYERKLKDEEERKAEEELERQFQKMMQESIDARKSEKVVASKIPVISKPVSVQKPLLLKKSEEPSSSKETYEELSKPKKIAFTFLTKSGKKTQSRILQLPTDVKFVSDVLEEEEKLKTERNKIKKIVLKRSFD
**Q.** Which results are given for B1?
**A.** binding result [4]: binds; Kd [5]: 0.43 µM

B2: CBP-Upf1-Ct (domain or fragment)
chain: PQPRKTERPMNAQFNVESEMGDFPKFQDFDAQSMVSFSGQIGDFGNAFVDNTELSSYINNEYWNFENFKSAFSQKQNRNEIDDRNLYQEEASHLNSNFARELQREEQKHELSKDFSNLGI
**Q.** Does B2 bind [6]?
**A.** binds

Source: PMC11897886 (Nucleic Acids Research, 2024)
